Measurements: PMC9574498 (The Journal of Biological Chemistry, 2022)

Key:
SEC-SAXS = molecular target: the molecule itself; assay: SEC-SAXS
[1] = molecular target: human calmodulin (Ca^2+-CaM; apo-CaM in EDTA) (human, UniProt P0DP23 1-149); assay: SEC

B1: human P2X7R ballast domain (P2X7BD, residues 395–595) (domain or fragment, UniProt Q99572 395-595, looked up)
chain: KPTLKYVSFVDESHIRMVNQQLLGRSLQDVKGQEVPRPAMDFTDLSRLPLALHDTPPIPGQPEEIQLLRKEATPRSRDSPVWCQCGSCLPSQLPESHRCLEELCCRKKPGACITTSELFRKLVLSRHVLQFLLLYQEPLLALDVDSTNSRLRHCAYRCYATWRFGSQDMADFAILPSCCRWRIRKEFPKSEGQYSGFKSPY
SEC-SAXS
  stoichiometry N: 3
[1]
  binding result: binds
